{"source": "paper PMC6994236", "origin": "cited, not measured here", "key": {"[1]": {"molecular_target": "PSD-95 PDZ3 (Rattus norvegicus) (UniProt P31016)", "sequence (P31016 310-396)": "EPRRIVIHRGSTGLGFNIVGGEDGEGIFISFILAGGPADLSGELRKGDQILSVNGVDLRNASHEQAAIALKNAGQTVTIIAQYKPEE", "assay": "surface plasmon resonance"}, "[2]": {"molecular_target": "PSD-95 PDZ1-3 (Rattus norvegicus) (UniProt P31016)", "sequence (P31016 61-393)": "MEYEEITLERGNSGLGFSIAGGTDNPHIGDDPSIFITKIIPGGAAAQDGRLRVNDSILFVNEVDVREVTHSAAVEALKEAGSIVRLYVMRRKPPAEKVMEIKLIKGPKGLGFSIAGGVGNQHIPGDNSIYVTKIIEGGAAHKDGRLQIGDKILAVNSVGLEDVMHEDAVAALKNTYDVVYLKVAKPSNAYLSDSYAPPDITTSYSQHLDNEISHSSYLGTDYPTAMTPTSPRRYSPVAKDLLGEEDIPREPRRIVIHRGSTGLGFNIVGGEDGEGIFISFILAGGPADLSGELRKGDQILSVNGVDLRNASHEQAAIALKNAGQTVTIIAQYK", "assay": "surface plasmon resonance"}}, "data": [{"substance": "synGAP lacking first 100 residues (from UniProt Q9QUH6)", "values": [{"measurement": "Kd", "setting": "[1]", "value": 650, "unit": "nM"}, {"measurement": "Kd", "setting": "[2]", "value": 5, "unit": "nM"}]}]}
